Measurements published in patent publication US20200190194A1 (GlaxoSmithKline, published 2020).

T1: human ICOS ligand (B7-H2) (human, UniProt O75144 19-258, limits assumed)
T1 construct: it is treated as the same molecule; also called CD275; recombinant ICOS-L (R&D Systems)
T1 sequence (looked up): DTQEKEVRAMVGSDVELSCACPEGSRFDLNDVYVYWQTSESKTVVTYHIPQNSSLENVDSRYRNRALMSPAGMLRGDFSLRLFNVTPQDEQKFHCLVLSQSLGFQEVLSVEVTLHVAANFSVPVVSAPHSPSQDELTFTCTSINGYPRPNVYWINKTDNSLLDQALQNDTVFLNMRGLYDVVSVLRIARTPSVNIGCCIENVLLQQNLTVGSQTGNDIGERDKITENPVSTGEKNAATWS

T2: rabbit Fc-tagged recombinant extracellular human ICOS (human, UniProt Q9Y6W8 21-140)
T2 construct: also called dimeric human ICOS; not shown: rabbit Fc tag
T2 sequence: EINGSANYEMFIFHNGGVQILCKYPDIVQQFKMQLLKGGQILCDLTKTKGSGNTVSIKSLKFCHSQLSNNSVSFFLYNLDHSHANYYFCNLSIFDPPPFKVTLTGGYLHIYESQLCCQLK


Legend:
[1] = target: T1, human ICOS ligand (B7-H2); test: flow cytometry competition: activated T cells pre-incubated with recombinant ICOS-L (B7-H2), then stained with H2L5; CD8+ cells
[2] = target: T2, rabbit Fc-tagged recombinant …; test: SPR (Biacore), compared with human ICOS-L binding to dimeric human ICOS (FIG. 15B)

Binder | binding result [1] | fold higher affinity than the ICOS-L/ICOS interaction [2]
human ICOS on activated human T cells (receptor, the isoform 1 entry is named; also called cell surface ICOS; ICOS+ T cells (CD4, CD8, Treg)) EINGSANYEMFIFHNGGVQILCKYPDIVQQFKMQLLKGGQILCDLTKTKGSGNTVSIKSLKFCHSQLSNNSVSFFLYNLDHSHANYYFCNLSIFDPPPFKVTLTGGYLHIYESQLCCQLKFWLPIGCAAFVVVCILGCILICWLTKKKYSSSVHDPNGEYMFMRAVNTAKKSRLTDVTL | binds | –
H2L5 IgG4PE (antibody, V domains shown, Human IgG4 with Fc mutations S228P and L235E (EU numbering), called IgG4PE; humanized variant of murine clone 422.2; also called ICOS IgG4PE; H2L5 (ICOS) IgG4PE) VH: QVQLVQSGAEVKKPGSSVKVSCKASGYTFTDYAMHWVRQAPGQGLEWMGLISIYSDHTNYNQKFQGRVTITADKSTSTAYMELSSLRSEDTAVYYCGRNNYGNYGWYFDVWGQGTTVTVSS VL: EIVLTQSPATLSLSPGERATLSCSASSSVSYMHWYQQKPGQAPRLLIYDTSKLASGIPARFSGSGSGTDYTLTISSLEPEDFAVYYCFQGSGYPYTFGQGTKLEIK | – | ~17 fold
